In PMC7893194:

Molecular target: interferon α (IFNα) (UniProt P01563)
Test: SPR

B1: human IFNAR1 (receptor)
chain: KNLKSPQKVEVDIIDDNFILRWNRSDESVGNVTFSFDYQKTGMDNWIKLSGCQNITSTKCNFSSLKLNVYEEIKLRIRAEKENTSSWYEVDSFTPFRKAQIGPPEVHLEAEDKAIVIHISPGTKDSVMWALDGLSFTYSLVIWKNSSGVEERIENIYSRHKIYKLSPETTYCLKVKAALLTSWKIGVYSPVHCIKTTVENELPPPENIEVSVQNQNYVLKWDYTYANMTFQVQWLHAFLKRNPGNHLYKWKQIPDCENVKTTQCVFPQNVFQKGIYLLRVQASDGNNTSFWSEEIKFDTEIQAFLLPPVFNIRSLSDSFHIYIGAPKQSGNTPVIQDYPLIYEIIFWENTSNAERKIIEKKTDVTVPNLKPLTVYCVKARAHTMDEKLNKSSVFSDAVCEKTKPGNTSKIWLIVGICIALFALPFVIYAAKVFLRCINYVFFPSLKPSSSIDEYFSEQPLKNLLLSTSEEQIEKCFIIENISTIATVEETNQTDEDHKKYSSQTSQDSGNYSNEDESESKTSEELQQDFV
B1 was tested, and the Kd was 4.58 nM.
